From US20230357348A1 (AstraZeneca / MedImmune, published 2023)
Starred links: 1 amine or outer side, 2 acyl side, 3 side chain; linkers in the order of their positions; H or OH if unused. Non-standard residues stand in square brackets, D forms with d. Groups on a side chain read outwards from the residue. Primed or numbered codes have the meaning given here. No end group written: not given here. *: point of attachment. C18 diacid = O=C(O)CCCCCCCCCCCCCCCCC(=O)*; γGlu = O=C(O)[C@H](CCC(=O)[*:2])N[*:1]; αMeF = C[C@](N)(Cc1ccccc1)C(=O)O; PEG4′ = polyethylene glycol; AEEA = NCCOCCOCC(=O)O; Aib = CC(C)(N)C(=O)O

What was measured:
[1] = molecular target: human GLP-1 receptor (hGLP-1R) (human, UniProt P43220 24-463); assay: cell-based or functional assay
[2] = molecular target: human glucagon receptor (hGCGR) (human, UniProt P47871 26-477); assay: cell-based or functional assay
human glucagon receptor (hGCGR), sequence (P47871 26-477): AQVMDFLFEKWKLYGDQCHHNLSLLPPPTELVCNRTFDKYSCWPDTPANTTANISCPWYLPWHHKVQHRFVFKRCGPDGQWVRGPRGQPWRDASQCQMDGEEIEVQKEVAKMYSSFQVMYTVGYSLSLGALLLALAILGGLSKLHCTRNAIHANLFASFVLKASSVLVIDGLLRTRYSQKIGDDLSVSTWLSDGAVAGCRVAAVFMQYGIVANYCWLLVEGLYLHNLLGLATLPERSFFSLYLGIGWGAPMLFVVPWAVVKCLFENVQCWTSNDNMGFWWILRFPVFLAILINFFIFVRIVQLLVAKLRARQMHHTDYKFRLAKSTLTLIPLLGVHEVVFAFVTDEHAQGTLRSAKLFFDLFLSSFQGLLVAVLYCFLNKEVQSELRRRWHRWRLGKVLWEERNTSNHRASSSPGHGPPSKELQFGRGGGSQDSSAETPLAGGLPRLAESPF

Row | Binder | hGLP-1R EC50 (pM) [1] | hGluc-R EC50 (pM) [2]
1 | HSQGS[αMeF]TSDVSK[αMeF]LDSK([γGlu-C18 diacid])AAQDFVQWIANT-NH2 (N-terminus assumed; SMILES CC[C@H](C)[C@H](NC(=O)[C@H](Cc1c[nH]c2ccccc12)NC(=O)[C@H](CCC(N)=O)NC(=O)[C@@H](NC(=O)[C@H](Cc1ccccc1)NC(=O)[C@H](CC(=O)O)NC(=O)[C@H](CCC(N)=O)NC(=O)[C@H](C)NC(=O)[C@H](C)NC(=O)[C@H](CCCCNC(=O)CC[C@H](NC(=O)CCCCCCCCCCCCCCCCC(=O)O)C(=O)O)NC(=O)[C@H](CO)NC(=O)[C@H](CC(=O)O)NC(=O)[C@H](CC(C)C)NC(=O)[C@](C)(Cc1ccccc1)NC(=O)[C@H](CCCCN)NC(=O)[C@H](CO)NC(=O)[C@@H](NC(=O)[C@H](CC(=O)O)NC(=O)[C@H](CO)NC(=O)[C@@H](NC(=O)[C@](C)(Cc1ccccc1)NC(=O)[C@H](CO)NC(=O)CNC(=O)[C@H](CCC(N)=O)NC(=O)[C@H](CO)NC(=O)[C@@H](N)Cc1c[nH]cn1)[C@@H](C)O)C(C)C)C(C)C)C(=O)N[C@@H](C)C(=O)N[C@@H](CC(N)=O)C(=O)N[C@H](C(N)=O)[C@@H](C)O) [Peptide 3] | 69 pM | 149 pM
2 | H[Aib]QGTFTSDYSK[αMeF]LDSK([AEEA-AEEA-γGlu-C18 diacid])RAQDFVQWLV[PEG4′]-NH2 [Peptide 41] | 663 pM | 5740 pM
3 | H[Aib]QGTFTSDVSK[αMeF]LDSK([γGlu-γGlu-AEEA-AEEA-γGlu-γGlu-C18 diacid])RARDFVRWLLE[Aib]G-OH (N-terminus assumed; SMILES CC(C)C[C@H](NC(=O)[C@H](Cc1c[nH]c2ccccc12)NC(=O)[C@H](CCCNC(=N)N)NC(=O)[C@@H](NC(=O)[C@H](Cc1ccccc1)NC(=O)[C@H](CC(=O)O)NC(=O)[C@H](CCCNC(=N)N)NC(=O)[C@H](C)NC(=O)[C@H](CCCNC(=N)N)NC(=O)[C@H](CCCCNC(=O)CC[C@H](NC(=O)CC[C@H](NC(=O)COCCOCCNC(=O)COCCOCCNC(=O)CC[C@H](NC(=O)CC[C@H](NC(=O)CCCCCCCCCCCCCCCCC(=O)O)C(=O)O)C(=O)O)C(=O)O)C(=O)O)NC(=O)[C@H](CO)NC(=O)[C@H](CC(=O)O)NC(=O)[C@H](CC(C)C)NC(=O)[C@](C)(Cc1ccccc1)NC(=O)[C@H](CCCCN)NC(=O)[C@H](CO)NC(=O)[C@@H](NC(=O)[C@H](CC(=O)O)NC(=O)[C@H](CO)NC(=O)[C@@H](NC(=O)[C@H](Cc1ccccc1)NC(=O)[C@@H](NC(=O)CNC(=O)[C@H](CCC(N)=O)NC(=O)C(C)(C)NC(=O)[C@@H](N)Cc1c[nH]cn1)[C@@H](C)O)[C@@H](C)O)C(C)C)C(C)C)C(=O)N[C@@H](CC(C)C)C(=O)N[C@@H](CCC(=O)O)C(=O)NC(C)(C)C(=O)NCC(=O)O) [Peptide 136] | 45.2 pM | 509 pM
4 | H[Aib]QGTFTSDVSK[αMeF]LDSK([AEEA-AEEA-γGlu-C18 diacid])RAQDFVQWLL[Aib]T-OH (N-terminus assumed; SMILES CC(C)C[C@H](NC(=O)[C@H](Cc1c[nH]c2ccccc12)NC(=O)[C@H](CCC(N)=O)NC(=O)[C@@H](NC(=O)[C@H](Cc1ccccc1)NC(=O)[C@H](CC(=O)O)NC(=O)[C@H](CCC(N)=O)NC(=O)[C@H](C)NC(=O)[C@H](CCCNC(=N)N)NC(=O)[C@H](CCCCNC(=O)COCCOCCNC(=O)COCCOCCNC(=O)CC[C@H](NC(=O)CCCCCCCCCCCCCCCCC(=O)O)C(=O)O)NC(=O)[C@H](CO)NC(=O)[C@H](CC(=O)O)NC(=O)[C@H](CC(C)C)NC(=O)[C@](C)(Cc1ccccc1)NC(=O)[C@H](CCCCN)NC(=O)[C@H](CO)NC(=O)[C@@H](NC(=O)[C@H](CC(=O)O)NC(=O)[C@H](CO)NC(=O)[C@@H](NC(=O)[C@H](Cc1ccccc1)NC(=O)[C@@H](NC(=O)CNC(=O)[C@H](CCC(N)=O)NC(=O)C(C)(C)NC(=O)[C@@H](N)Cc1c[nH]cn1)[C@@H](C)O)[C@@H](C)O)C(C)C)C(C)C)C(=O)N[C@@H](CC(C)C)C(=O)NC(C)(C)C(=O)N[C@H](C(=O)O)[C@@H](C)O) [Peptide 40] | 29.9 pM | 123 pM
5 | H[Aib]QGTFTSDVSK[αMeF]LDSK([AEEA-AEEA-γGlu-C18 diacid])RA[Aib]DFVQWLL[Aib]T-OH (N-terminus assumed; SMILES CC(C)C[C@H](NC(=O)[C@H](Cc1c[nH]c2ccccc12)NC(=O)[C@H](CCC(N)=O)NC(=O)[C@@H](NC(=O)[C@H](Cc1ccccc1)NC(=O)[C@H](CC(=O)O)NC(=O)C(C)(C)NC(=O)[C@H](C)NC(=O)[C@H](CCCNC(=N)N)NC(=O)[C@H](CCCCNC(=O)COCCOCCNC(=O)COCCOCCNC(=O)CC[C@H](NC(=O)CCCCCCCCCCCCCCCCC(=O)O)C(=O)O)NC(=O)[C@H](CO)NC(=O)[C@H](CC(=O)O)NC(=O)[C@H](CC(C)C)NC(=O)[C@](C)(Cc1ccccc1)NC(=O)[C@H](CCCCN)NC(=O)[C@H](CO)NC(=O)[C@@H](NC(=O)[C@H](CC(=O)O)NC(=O)[C@H](CO)NC(=O)[C@@H](NC(=O)[C@H](Cc1ccccc1)NC(=O)[C@@H](NC(=O)CNC(=O)[C@H](CCC(N)=O)NC(=O)C(C)(C)NC(=O)[C@@H](N)Cc1c[nH]cn1)[C@@H](C)O)[C@@H](C)O)C(C)C)C(C)C)C(=O)N[C@@H](CC(C)C)C(=O)NC(C)(C)C(=O)N[C@H](C(=O)O)[C@@H](C)O) [Peptide 29] | 107 pM | 629 pM
6 | H[Aib]QGTFTSDVSK[αMeF]LDSK([γGlu-γGlu-AEEA-AEEA-γGlu-γGlu-C18 diacid])RAQDFVRWLLEG[Aib]-OH (N-terminus assumed; SMILES CC(C)C[C@H](NC(=O)[C@H](CC(C)C)NC(=O)[C@H](Cc1c[nH]c2ccccc12)NC(=O)[C@H](CCCNC(=N)N)NC(=O)[C@@H](NC(=O)[C@H](Cc1ccccc1)NC(=O)[C@H](CC(=O)O)NC(=O)[C@H](CCC(N)=O)NC(=O)[C@H](C)NC(=O)[C@H](CCCNC(=N)N)NC(=O)[C@H](CCCCNC(=O)CC[C@H](NC(=O)CC[C@H](NC(=O)COCCOCCNC(=O)COCCOCCNC(=O)CC[C@H](NC(=O)CC[C@H](NC(=O)CCCCCCCCCCCCCCCCC(=O)O)C(=O)O)C(=O)O)C(=O)O)C(=O)O)NC(=O)[C@H](CO)NC(=O)[C@H](CC(=O)O)NC(=O)[C@H](CC(C)C)NC(=O)[C@](C)(Cc1ccccc1)NC(=O)[C@H](CCCCN)NC(=O)[C@H](CO)NC(=O)[C@@H](NC(=O)[C@H](CC(=O)O)NC(=O)[C@H](CO)NC(=O)[C@@H](NC(=O)[C@H](Cc1ccccc1)NC(=O)[C@@H](NC(=O)CNC(=O)[C@H](CCC(N)=O)NC(=O)C(C)(C)NC(=O)[C@@H](N)Cc1c[nH]cn1)[C@@H](C)O)[C@@H](C)O)C(C)C)C(C)C)C(=O)N[C@@H](CCC(=O)O)C(=O)NCC(=O)NC(C)(C)C(=O)O) [Peptide 137] | 143 pM | 268 pM
7 | H[Aib]QGTFTSDVSK[αMeF]LDSK([AEEA-AEEA-γGlu-C18 diacid])RAQDFVQ[Aib]LVAT-OH (N-terminus assumed; SMILES CC(C)C[C@H](NC(=O)C(C)(C)NC(=O)[C@H](CCC(N)=O)NC(=O)[C@@H](NC(=O)[C@H](Cc1ccccc1)NC(=O)[C@H](CC(=O)O)NC(=O)[C@H](CCC(N)=O)NC(=O)[C@H](C)NC(=O)[C@H](CCCNC(=N)N)NC(=O)[C@H](CCCCNC(=O)COCCOCCNC(=O)COCCOCCNC(=O)CC[C@H](NC(=O)CCCCCCCCCCCCCCCCC(=O)O)C(=O)O)NC(=O)[C@H](CO)NC(=O)[C@H](CC(=O)O)NC(=O)[C@H](CC(C)C)NC(=O)[C@](C)(Cc1ccccc1)NC(=O)[C@H](CCCCN)NC(=O)[C@H](CO)NC(=O)[C@@H](NC(=O)[C@H](CC(=O)O)NC(=O)[C@H](CO)NC(=O)[C@@H](NC(=O)[C@H](Cc1ccccc1)NC(=O)[C@@H](NC(=O)CNC(=O)[C@H](CCC(N)=O)NC(=O)C(C)(C)NC(=O)[C@@H](N)Cc1c[nH]cn1)[C@@H](C)O)[C@@H](C)O)C(C)C)C(C)C)C(=O)N[C@H](C(=O)N[C@@H](C)C(=O)N[C@H](C(=O)O)[C@@H](C)O)C(C)C) [Peptide 42] | 665 pM | 8190 pM
8 | H[Aib]QGTFTSDVSK[αMeF]LDSK([AEEA-AEEA-γGlu-C18 diacid])RAQDFVRWLLE[Aib]G-OH (N-terminus assumed; SMILES CC(C)C[C@H](NC(=O)[C@H](Cc1c[nH]c2ccccc12)NC(=O)[C@H](CCCNC(=N)N)NC(=O)[C@@H](NC(=O)[C@H](Cc1ccccc1)NC(=O)[C@H](CC(=O)O)NC(=O)[C@H](CCC(N)=O)NC(=O)[C@H](C)NC(=O)[C@H](CCCNC(=N)N)NC(=O)[C@H](CCCCNC(=O)COCCOCCNC(=O)COCCOCCNC(=O)CC[C@H](NC(=O)CCCCCCCCCCCCCCCCC(=O)O)C(=O)O)NC(=O)[C@H](CO)NC(=O)[C@H](CC(=O)O)NC(=O)[C@H](CC(C)C)NC(=O)[C@](C)(Cc1ccccc1)NC(=O)[C@H](CCCCN)NC(=O)[C@H](CO)NC(=O)[C@@H](NC(=O)[C@H](CC(=O)O)NC(=O)[C@H](CO)NC(=O)[C@@H](NC(=O)[C@H](Cc1ccccc1)NC(=O)[C@@H](NC(=O)CNC(=O)[C@H](CCC(N)=O)NC(=O)C(C)(C)NC(=O)[C@@H](N)Cc1c[nH]cn1)[C@@H](C)O)[C@@H](C)O)C(C)C)C(C)C)C(=O)N[C@@H](CC(C)C)C(=O)N[C@@H](CCC(=O)O)C(=O)NC(C)(C)C(=O)NCC(=O)O) [Peptide 31] | 41.3 pM | 56.8 pM
